Measured values reported in article PMC3127751, “Adhesive polypeptides of Staphylococcus aureus identified using a novel secretion library technique in Escherichia coli” (BMC Microbiology, 2011).

B1: His-ΔFnBPA (domain or fragment)
chain: ASEQKTTTVEENGNSATDNKTSETQTTATNVNHIEETQSYNATVTEQPSNATQVTTEEAPKAVQAPQTAQPANIETVKEEVVKEEAKPQVKETTQSQDNSGDQRQVDLTPKKATQNQVAETQVEVAQPRTASESKPRVTRSADVAEAKEASNAKVETGTDVTSKVTVEIGSIEGHNNTNKVEPHAGQRAVLKYKLKFENGLHQGDYFDFTLSNNVNTHGVSTARKVPEIKNGSVVMATGEVLEGGKIRYTFTNDIEDKVDVTAELEINLFIDPKTVQTNGNQTITSTLNEEQTSKELDVKYKDGIGNYYANLNGSIETFNKANNRFSHVAFIKPNNGKTTSVTVTGTLMKGSNQNGNQPKVRIFEYLGNNEDIAKSVYANTTDTSKFKEVTSNMSGNLNLQNNGSYSLNIENLDKTYVVHYDGEYLNGTDEVDFRTQMVGHPEQLYKYYYDRGYTLTWDNGLVLYSNKANGNEKNGPIIQNNKFEYKEDTIKETLTGQYDKNLVTTVEEEYDSSTLDIDYHTAIDGGGGYVDGYIETIEETDSSAIDIDYHTAVDSEAGHVGGYTESSEESNPIDFEESTHENSKHHADVVEYEEDTNPGGGQVTTESNLVEFDEESTKGIVTGAVSDHTTVEDTKEYTTESNLIELVDELPEEHGQAQGPVEEITKNNHHISHSGLGTENGHGNYDVIEEIEENSHVDIKSELGYEGGQNSGNQSFEEDTEEDKPKYEQGGNIVDIDFDSVPQIHGQNKGNQSFEEDTEKDKPKYEHGGNIIDIDFDSVPHIHGFNKHTEIIEEDTNKDKPSYQFGGHNSVDFEEDTLPKVSGQNEGQQTIEEDTTPPIVPPTPPTPEVPSEPETPTPPTPEVPSEPETPTPPTPEVPSEPETPTPPTPEVPAEPGKPVPPAKEEPKKPSKPVEQGKVVTPVIEINEKVKAVAPTKKPQSKKSELPET
notes: the FnBPA gene fragment of library clone ΔFnBPA (as the staphylococcal part of m2); also called ΔFnBPA purified 6xHis polypeptide; source: E. coli cytoplasm (pQE30), purified under native conditions (QIAexpress System), dialysed against PBS; not shown: His6, N-terminal, kept
B2: fibrinogen (complex)
chain 1: ADSGEGDFLAEGGGVRGPRVVERHQSACKDSDWPFCSDEDWNYKCPSGCRMKGLIDEVNQDFTNRINKLKNSLFEYQKNNKDSHSLTTNIMEILRGDFSSANNRDNTYNRVSEDLRSRIEVLKRKVIEKVQHIQLLQKNVRAQLVDMKRLEVDIDIKIRSCRGSCSRALAREVDLKDYEDQQKQLEQVIAKDLLPSRDRQHLPLIKMKPVPDLVPGNFKSQLQKVPPEWKALTDMPQMRMELERPGGNEITRGGSTSYGTGSETESPRNPSSAGSWNSGSSGPGSTGNRNPGSSGTGGTATWKPGSSGPGSTGSWNSGSSGTGSTGNQNPGSPRPGSTGTWNPGSSERGSAGHWTSESSVSGSTGQWHSESGSFRPDSPGSGNARPNNPDWGTFEEVSGNVSPGTRREYHTEKLVTSKGDKELRTGKEKVTSGSTTTTRRSCSKTVTKTVIGPDGHKEVTKEVVTSEDGSDCPEAMDLGTLSGIGTLDGFRHRHPDEAAFFDTASTGKTFPGFFSPMLGEFVSETESRGSESGIFTNTKESSSHHPGIAEFPSRGKSSSYSKQFTSSTSYNRGDSTFESKSYKMADEAGSEADHEGTHSTKRGHAKSRPV
chain 2: QGVNDNEEGFFSARGHRPLDKKREEAPSLRPAPPPISGGGYRARPAKAAATQKKVERKAPDAGGCLHADPDLGVLCPTGCQLQEALLQQERPIRNSVDELNNNVEAVSQTSSSSFQYMYLLKDLWQKRQKQVKDNENVVNEYSSELEKHQLYIDETVNSNIPTNLRVLRSILENLRSKIQKLESDVSAQMEYCRTPCTVSCNIPVVSGKECEEIIRKGGETSEMYLIQPDSSVKPYRVYCDMNTENGGWTVIQNRQDGSVDFGRKWDPYKQGFGNVATNTDGKNYCGLPGEYWLGNDKISQLTRMGPTELLIEMEDWKGDKVKAHYGGFTVQNEANKYQISVNKYRGTAGNALMDGASQLMGENRTMTIHNGMFFSTYDRDNDGWLTSDPRKQCSKEDGGGWWYNRCHAANPNGRYYWGGQYTWDMAKHGTDDGVVWMNWKGSWYSMRKMSMKIRPFFPQQ
chain 3: YVATRDNCCILDERFGSYCPTTCGIADFLSTYQTKVDKDLQSLEDILHQVENKTSEVKQLIKAIQLTYNPDESSKPNMIDAATLKSRKMLEEIMKYEASILTHDSSIRYLQEIYNSNNQKIVNLKEKVAQLEAQCQEPCKDTVQIHDITGKDCQDIANKGAKQSGLYFIKPLKANQQFLVYCEIDGSGNGWTVFQKRLDGSVDFKKNWIQYKEGFGHLSPTGTTEFWLGNEKIHLISTQSAIPYALRVELEDWNGRTSTADYAMFKVGPEADKYRLTYAYFAGGDAGDAFDGFDFGDDPSDKFFTSHNGMQFSTWDNDNDKFEGNCAEQDGSGWWMNKCHAGHLNGVYYQGGTYSKASTPNGYDNGIIWATWKTRWYSMKKTTMKIIPFNRLTIGEGQQHHLGGAKQAGDV
modifications: plasma fibrinogen (AαBβγ)2, disulfide-linked and glycosylated, fibrinopeptides retained; the main circulating forms are assumed (Aα 610 residues, γA 411 residues). The γA chain is taken from PDB …
B3: His-ΔUsp (domain or fragment)
chain: MITYKNILIAVDGSHEAEWAFNRAVGVAKRNDAKLTIVNVIDSRTYSSYEVYDAQFTEKSKHFAEELLNGYKEVATNAGVKDVETRLEFGSPKSIIPKKLAHEINADLIMSGTSGLNAVERFIVGSVSESIVRHAPCDVLVVRTEELPADFQPQVATTQLREKYQN
notes: the Usp-like gene fragment of library clone ΔUsp (as the staphylococcal part of m7), recloned by PCR into pQE30; also called ΔUsp purified 6xHis polypeptide; source: E. coli cytoplasm (pQE30), purified under native conditions (QIAexpress System), dialysed against PBS; not shown: His6, N-terminal, kept
B4: His-ΔPurK (domain or fragment)
chain: MNFNKLKFGATIGIIGGGQLGKMMAQSAQKMGYKVVVLDPSEDCPCRYVAHEFIQAKYDDEKALNQLGQKCDVITYEFENISAQQLKLLCEKYNIPQGYQAIQLLQDRLTEKETLKSAGTKVVPFISVKESTDIDKAIETLGYPFIVKTRFGGYDGKGQVLINNEKDLQEGFKLIETSECVAEKYLNIKKEVSLTVTRGNNNQITFFPLQENEHRNQILFKTIVPARIDKTAEAKEQVNKIIQSIHFIGTFTVEFFIDSNNQLYVNEIAPRPHNSGHYSIEACDYSQFDTHILAVTGQSLPNSIELLKPAVMMNLLGKDLDLLENEFNEHPEWHLHIYGKSERKDSRKMGHMTVLTNDVNQTEQDMYAKFEGSN
notes: the PurK gene fragment of library clone ΔPurK (as the staphylococcal part of m5), recloned by PCR into pQE30; also called ΔPurK purified 6xHis polypeptide; source: E. coli cytoplasm (pQE30), purified under native conditions (QIAexpress System), dialysed against PBS; not shown: His6, N-terminal, kept

Tests used:
Assay in all cases: SPR; Biacore T100, CM5 chip, Fn and Fg amine-coupled; His-polypeptides as analytes at 0.5, 1.0, 1.5, 2.0 and 2.5 μM in PBS, 30 μl/min, single cycle kinetics; steady state affinity constants
Conditions in all cases: both partners purified
[1] = biological target: human plasma fibronectin (human)
human plasma fibronectin (human), sequence (P02751 other isoform, or with tags, fused parts or gaps, chain 1 of 2): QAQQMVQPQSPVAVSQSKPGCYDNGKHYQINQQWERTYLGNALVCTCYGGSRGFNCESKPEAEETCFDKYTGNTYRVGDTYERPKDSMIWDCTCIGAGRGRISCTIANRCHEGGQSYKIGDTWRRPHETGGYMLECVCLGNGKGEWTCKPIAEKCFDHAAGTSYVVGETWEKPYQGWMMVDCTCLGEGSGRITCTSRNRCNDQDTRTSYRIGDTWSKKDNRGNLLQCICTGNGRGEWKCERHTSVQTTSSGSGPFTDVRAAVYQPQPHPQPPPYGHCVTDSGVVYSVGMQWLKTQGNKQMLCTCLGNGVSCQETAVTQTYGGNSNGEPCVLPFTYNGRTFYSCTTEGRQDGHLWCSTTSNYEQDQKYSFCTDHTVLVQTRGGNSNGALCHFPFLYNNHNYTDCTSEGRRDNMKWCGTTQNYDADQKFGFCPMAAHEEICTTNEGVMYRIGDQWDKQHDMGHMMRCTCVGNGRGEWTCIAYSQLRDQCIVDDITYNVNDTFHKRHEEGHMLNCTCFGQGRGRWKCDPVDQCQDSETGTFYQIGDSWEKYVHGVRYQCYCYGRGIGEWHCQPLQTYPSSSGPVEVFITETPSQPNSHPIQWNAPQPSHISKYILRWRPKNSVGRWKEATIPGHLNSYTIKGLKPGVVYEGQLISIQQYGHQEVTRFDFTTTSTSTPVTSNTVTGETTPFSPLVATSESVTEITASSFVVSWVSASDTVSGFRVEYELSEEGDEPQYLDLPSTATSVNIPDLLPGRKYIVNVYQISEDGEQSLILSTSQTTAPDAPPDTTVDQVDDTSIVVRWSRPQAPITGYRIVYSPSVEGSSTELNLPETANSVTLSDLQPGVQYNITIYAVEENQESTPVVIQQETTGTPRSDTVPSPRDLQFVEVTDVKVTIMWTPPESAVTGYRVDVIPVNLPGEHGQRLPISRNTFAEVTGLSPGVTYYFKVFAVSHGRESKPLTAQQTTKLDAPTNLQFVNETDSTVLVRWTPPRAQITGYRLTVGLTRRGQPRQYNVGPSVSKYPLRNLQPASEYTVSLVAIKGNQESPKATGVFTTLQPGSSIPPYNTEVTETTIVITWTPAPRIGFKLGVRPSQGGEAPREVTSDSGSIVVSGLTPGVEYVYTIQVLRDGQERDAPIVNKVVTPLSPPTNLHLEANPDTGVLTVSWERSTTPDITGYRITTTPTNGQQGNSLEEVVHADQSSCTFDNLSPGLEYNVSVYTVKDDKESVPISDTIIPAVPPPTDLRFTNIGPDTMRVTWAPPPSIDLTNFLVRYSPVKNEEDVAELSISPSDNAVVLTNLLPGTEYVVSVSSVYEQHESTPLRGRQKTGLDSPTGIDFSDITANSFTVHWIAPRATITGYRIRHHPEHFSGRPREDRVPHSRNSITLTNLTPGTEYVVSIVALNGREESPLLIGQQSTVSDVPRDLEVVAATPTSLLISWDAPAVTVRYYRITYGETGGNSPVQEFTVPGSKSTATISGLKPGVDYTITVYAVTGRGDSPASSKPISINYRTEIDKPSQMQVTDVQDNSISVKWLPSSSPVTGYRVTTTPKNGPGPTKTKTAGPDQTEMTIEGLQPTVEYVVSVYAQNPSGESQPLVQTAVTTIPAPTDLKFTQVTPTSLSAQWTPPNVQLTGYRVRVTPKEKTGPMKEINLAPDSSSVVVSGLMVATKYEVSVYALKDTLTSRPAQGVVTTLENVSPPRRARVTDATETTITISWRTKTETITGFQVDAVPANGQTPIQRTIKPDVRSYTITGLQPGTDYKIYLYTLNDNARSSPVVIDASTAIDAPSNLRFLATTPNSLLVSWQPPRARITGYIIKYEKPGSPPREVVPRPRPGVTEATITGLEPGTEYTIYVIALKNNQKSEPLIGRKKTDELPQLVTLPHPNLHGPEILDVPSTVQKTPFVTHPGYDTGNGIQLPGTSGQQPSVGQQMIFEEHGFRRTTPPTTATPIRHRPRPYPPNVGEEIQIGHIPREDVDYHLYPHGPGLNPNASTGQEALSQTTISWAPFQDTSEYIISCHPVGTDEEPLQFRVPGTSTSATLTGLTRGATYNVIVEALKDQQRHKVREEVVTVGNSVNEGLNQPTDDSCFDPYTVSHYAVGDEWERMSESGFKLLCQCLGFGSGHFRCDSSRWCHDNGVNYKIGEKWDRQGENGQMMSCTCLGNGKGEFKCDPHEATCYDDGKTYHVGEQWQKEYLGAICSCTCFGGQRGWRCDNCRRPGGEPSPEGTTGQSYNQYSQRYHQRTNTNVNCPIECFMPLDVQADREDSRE
human plasma fibronectin (human), sequence (P02751 other isoform, or with tags, fused parts or gaps, chain 2 of 2): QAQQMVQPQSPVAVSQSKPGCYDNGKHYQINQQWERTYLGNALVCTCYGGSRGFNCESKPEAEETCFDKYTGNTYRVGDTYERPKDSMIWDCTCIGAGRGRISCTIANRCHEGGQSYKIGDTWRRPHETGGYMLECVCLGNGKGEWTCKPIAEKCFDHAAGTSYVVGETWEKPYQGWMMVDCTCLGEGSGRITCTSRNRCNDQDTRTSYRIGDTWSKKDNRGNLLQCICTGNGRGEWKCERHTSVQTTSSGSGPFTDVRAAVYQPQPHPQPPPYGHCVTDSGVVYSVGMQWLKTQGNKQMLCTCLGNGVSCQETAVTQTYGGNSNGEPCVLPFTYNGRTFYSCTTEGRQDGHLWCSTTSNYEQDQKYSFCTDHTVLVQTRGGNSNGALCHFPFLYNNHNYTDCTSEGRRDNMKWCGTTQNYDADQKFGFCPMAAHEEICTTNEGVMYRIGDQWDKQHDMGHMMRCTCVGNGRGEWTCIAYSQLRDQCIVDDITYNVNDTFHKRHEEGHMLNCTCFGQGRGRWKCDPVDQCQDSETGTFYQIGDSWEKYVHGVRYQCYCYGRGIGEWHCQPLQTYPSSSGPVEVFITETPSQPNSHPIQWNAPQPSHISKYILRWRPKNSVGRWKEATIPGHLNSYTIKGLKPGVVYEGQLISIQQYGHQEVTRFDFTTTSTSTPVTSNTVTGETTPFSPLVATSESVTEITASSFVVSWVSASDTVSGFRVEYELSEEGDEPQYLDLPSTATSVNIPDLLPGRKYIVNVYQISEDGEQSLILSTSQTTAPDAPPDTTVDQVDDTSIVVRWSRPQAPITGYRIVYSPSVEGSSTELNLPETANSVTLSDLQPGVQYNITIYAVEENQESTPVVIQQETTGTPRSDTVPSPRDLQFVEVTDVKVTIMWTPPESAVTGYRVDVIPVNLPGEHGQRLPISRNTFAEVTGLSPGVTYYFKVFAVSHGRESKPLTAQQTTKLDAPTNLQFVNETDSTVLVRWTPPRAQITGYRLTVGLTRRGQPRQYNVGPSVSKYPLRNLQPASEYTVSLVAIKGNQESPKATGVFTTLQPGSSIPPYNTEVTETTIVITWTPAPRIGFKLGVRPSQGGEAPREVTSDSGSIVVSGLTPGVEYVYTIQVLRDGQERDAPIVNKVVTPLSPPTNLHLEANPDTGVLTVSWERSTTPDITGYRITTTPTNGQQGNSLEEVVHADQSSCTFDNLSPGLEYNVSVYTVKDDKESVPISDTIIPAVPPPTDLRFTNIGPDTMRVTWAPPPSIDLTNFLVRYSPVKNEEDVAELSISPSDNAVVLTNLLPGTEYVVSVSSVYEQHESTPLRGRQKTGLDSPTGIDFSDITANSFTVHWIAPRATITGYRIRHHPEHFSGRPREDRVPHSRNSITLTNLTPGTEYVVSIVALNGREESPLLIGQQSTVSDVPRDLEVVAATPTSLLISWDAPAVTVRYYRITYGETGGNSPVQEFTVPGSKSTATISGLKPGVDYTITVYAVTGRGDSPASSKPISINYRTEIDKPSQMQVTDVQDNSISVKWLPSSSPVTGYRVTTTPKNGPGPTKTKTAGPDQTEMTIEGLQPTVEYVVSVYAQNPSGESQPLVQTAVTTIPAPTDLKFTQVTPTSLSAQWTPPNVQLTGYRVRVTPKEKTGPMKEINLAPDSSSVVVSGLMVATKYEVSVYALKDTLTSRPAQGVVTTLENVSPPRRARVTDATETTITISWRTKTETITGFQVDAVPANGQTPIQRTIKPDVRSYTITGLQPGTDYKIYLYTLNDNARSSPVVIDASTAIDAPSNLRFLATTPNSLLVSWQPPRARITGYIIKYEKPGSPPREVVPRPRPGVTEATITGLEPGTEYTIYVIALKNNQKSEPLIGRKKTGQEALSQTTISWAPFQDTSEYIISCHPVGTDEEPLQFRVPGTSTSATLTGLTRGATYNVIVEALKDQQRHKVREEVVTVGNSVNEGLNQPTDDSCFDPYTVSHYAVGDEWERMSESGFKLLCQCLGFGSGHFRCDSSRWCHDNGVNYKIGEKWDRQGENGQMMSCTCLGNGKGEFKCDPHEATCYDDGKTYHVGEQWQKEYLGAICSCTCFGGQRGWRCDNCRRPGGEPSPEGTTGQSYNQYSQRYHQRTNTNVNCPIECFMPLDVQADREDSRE

[2] = biological target: His-ΔCoa (S. aureus subsp. aureus NCTC 8325-4, UniProt Q2G1D3 1-636)
[3] = biological target: T1, His-ΔEbh (S. aureus subsp. aureus NCTC 8325-4, UniProt Q2FYJ6 40-9535)
T1 construct: the Ebh gene fragment of library clone ΔEbh (as the staphylococcal part of m3), recloned by PCR into pQE30; also called ΔEbh purified 6xHis polypeptide; source: E. coli cytoplasm (pQE30), purified under native conditions (QIAexpress System), dialysed against PBS; not shown: His6, N-terminal, kept

[4] = biological target: B2

Binder | Kd [1] | Kd [2] | Kd [3] | Kd [4]
B1 | 5.24 µM |  |  | 
B2 |  | 0.18 µM | 1.25 µM | 
B3 |  |  |  | 6.45 µM
B4 | 0.443 µM |  |  | 5.39 µM
